The supplement of paper PMC5998384

Columns and labels:
HeLa Kyoto [1] = assay: thermal stability score vs G1/S (z-score of summed log2 fold changes over temperatures); higher = more thermally stable than in G1/S
HeLa Kyoto [2] = assay: solubility change mitosis vs G1/S (difference of NP-40 vs SDS log2 ratios) (log2 ratio difference); higher = more soluble in mitosis
HeLa Kyoto [3] = assay: solubility in G1/S (NP-40 vs SDS abundance) (log2 ratio); higher = more soluble; settings: cell cycle stage: G1/S
HeLa Kyoto [4] = assay: melting temperature (median over replicates), in situ; higher = more thermally stable
[5] = cell cycle stage: early G1 (4.5 h after nocodazole release)
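Wherever melting temperature (median over replicates), in situ is given: HeLa Kyoto cells synchronized by double thymidine or nocodazole block, proteins quantified by TMT10plex mass spectrometry, three independent biological replicates.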
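Wherever solubility change mitosis vs G1/S (difference of NP-40 vs SDS log2 ratios) is given: synchronized HeLa Kyoto cells (double thymidine block for G1/S, nocodazole release for mitosis), protein amounts in NP-40 versus SDS lysates quantified by mass spectrometry, three biological replicates.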
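Wherever solubility in G1/S (NP-40 vs SDS abundance) is given: HeLa Kyoto cells arrested at G1/S by double thymidine block, proteins quantified by TMT10plex mass spectrometry in mild NP-40 versus SDS extracts, three biological replicates.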
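Wherever thermal stability score vs G1/S (z-score of summed log2 fold changes over temperatures) is given: synchronized HeLa Kyoto cells, proteins quantified by TMT10plex mass spectrometry, three biological replicates, mitosis taken 0.5 h after nocodazole release, G1/S directly after double thymidine block.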

Substance | thermal stability score (HeLa Kyoto [1]; [5]) | thermal stability score (HeLa Kyoto [1]; cell cycle stage: mitosis) | solubility change mitosis (log2) (HeLa Kyoto [2]) | solubility in G1/S (log2) (HeLa Kyoto [3]) | melting temperature (HeLa Kyoto [4]; cell cycle stage: G1/S) [°C] | melting temperature (HeLa Kyoto [4]; cell cycle stage: mitosis) [°C]
MGSGPIDPKELLKGLDSFLNRDGEVKSVDGISKIFSLMKEARKMVSRCTYLNILLQTRSPEILVKFIDVGGYKLLNNWLTYSKTTNNIPLLQQILLTLQHLPLTVDHLKQNNTAKLVKQLSKSSEDEELRKLASVLVSDWMAVIRSQSSTQPAEKDKKKRKDEGKSRTTLPERPLTEVKAETRAEEAPEKKREKPKSLRTTAPSHAKFRSTGLELETPSLVPVKKNASTVVVSDKYNLKPIPLKRQSNVAAPGDATPPAEKKYKPLNTTPNATKEIKVKIIPPQPMEGLGFLDALNSAPVPGIKIKKKKKVLSPTAAKPSPFEGKTSTEPSTAKPSSPEPAPPSEAMDADRPGTPVPPVEVPELMDTASLEPGALDAKPVESPGDPNQLTRKGRKRKSVTWPEEGKLREYFYFELDETERVNVNKIKDFGEAAKREILSDRHAFETARRLSHDNMEEKVPWVCPRPLVLPSPLVTPGSNSQERYIQAEREKGILQELFLNKESPHEPDPEPYEPIPPKLIPLDEECSMDETPYVETLEPGGSGGSPDGAGGSKLPPVLANLMGSMGAGKGPQGPGGGGINVQEILTSIMGSPNSHPSEELLKQPDYSDKIKQMLVPHGLLGPGPIANGFPPGGPGGPKGMQHFPPGPGGPMPGPHGGPGGPVGPRLLGPPPPPRGGDPFWDGPGDPMRGGPMRGGPGPGPGPYHRGRGGRGGNEPPPPPPPFRGARGGRSGGGPPNGRGGPGGGMVGGGGHRPHEGPGGGMGNSSGHRPHEGPGGGMGSGHRPHEGPGGSMGGGGGHRPHEGPGGGISGGSGHRPHEGPGGGMGAGGGHRPHEGPGGSMGGSGGHRPHEGPGHGGPHGHRPHDVPGHRGHDHRGPPPHEHRGHDGPGHGGGGHRGHDGGHSHGGDMSNRPVCRHFMMKGNCRYENNCAFYHPGVNGPPLP [PPP1R10] | 4.23 | 3.65 | 0.274 | 0.0711 | 51 | 50.8
MAAEQDPEARAAARPLLTDLYQATMALGYWRAGRARDAAEFELFFRRCPFGGAFALAAGLRDCVRFLRAFRLRDADVQFLASVLPPDTDPAFFEHLRALDCSEVTVRALPEGSLAFPGVPLLQVSGPLLVVQLLETPLLCLVSYASLVATNAARLRLIAGPEKRLLEMGLRRAQGPDGGLTASTYSYLGGFDSSSNVLAGQLRGVPVAGTLAHSFVTSFSGSEVPPDPMLAPAAGEGPGVDLAAKAQVWLEQVCAHLGLGVQEPHPGERAAFVAYALAFPRAFQGLLDTYSVWRSGLPNFLAVALALGELGYRAVGVRLDSGDLLQQAQEIRKVFRAAAAQFQVPWLESVLIVVSNNIDEEALARLAQEGSEVNVIGIGTSVVTCPQQPSLGGVYKLVAVGGQPRMKLTEDPEKQTLPGSKAAFRLLGSDGSPLMDMLQLAEEPVPQAGQELRVWPPGAQEPCTVRPAQVEPLLRLCLQQGQLCEPLPSLAESRALAQLSLSRLSPEHRRLRSPAQYQVVLSERLQALVNSLCAGQSP [NAPRT] | 0.14 | -1.8 | -0.0823 | 0.352 | 56.9 | 56.7
MASASTSKYNSHSLENESIKRTSRDGVNRDLTEAVPRLPGETLITDKEVIYICPFNGPIKGRVYITNYRLYLRSLETDSSLILDVPLGVISRIEKMGGATSRGENSYGLDITCKDMRNLRFALKQEGHSRRDMFEILTRYAFPLAHSLPLFAFLNEEKFNVDGWTVYNPVEEYRRQGLPNHHWRITFINKCYELCDTYPALLVVPYRASDDDLRRVATFRSRNRIPVLSWIHPENKTVIVRCSQPLVGMSGKRNKDDEKYLDVIRETNKQISKLTIYDARPSVNAVANKATGGGYESDDAYHNAELFFLDIHNIHVMRESLKKVKDIVYPNVEESHWLSSLESTHWLEHIKLVLTGAIQVADKVSSGKSSVLVHCSDGWDRTAQLTSLAMLMLDSFYRSIEGFEILVQKEWISFGHKFASRIGHGDKNHTDADRSPIFLQFIDCVWQMSKQFPTAFEFNEQFLIIILDHLYSCRFGTFLFNCESARERQKVTERTVSLWSLINSNKEKFKNPFYTKEINRVLYPVASMRHLELWVNYYIRWNPRIKQQQPNPVEQRYMELLALRDEYIKRLEELQLANSAKLSDPPTSPSSPSQMMPHVQTHF [MTM1] | -1.72 | -2.37 | 0.0496 | -0.0766 | 55.2 | 54
MVQKESQATLEERESELSSNPAASAGASLEPPAAPAPGEDNPAGAGGAAVAGAAGGARRFLCGVVEGFYGRPWVMEQRKELFRRLQKWELNTYLYAPKDDYKHRMFWREMYSVEEAEQLMTLISAAREYEIEFIYAISPGLDITFSNPKEVSTLKRKLDQVSQFGCRSFALLFDDIDHNMCAADKEVFSSFAHAQVSITNEIYQYLGEPETFLFCPTEYCGTFCYPNVSQSPYLRTVGEKLLPGIEVLWTGPKVVSKEIPVESIEEVSKIIKRAPVIWDNIHANDYDQKRLFLGPYKGRSTELIPRLKGVLTNPNCEFEANYVAIHTLATWYKSNMNGVRKDVVMTDSEDSTVSIQIKLENEGSDEDIETDVLYSPQMALKLALTEWLQEFGVPHQYSSRQVAHSGAKASVVDGTPLVAAPSLNATTVVTTVYQEPIMSQGAALSGEPTTLTKEEEKKQPDEEPMDMVVEKQEETDHKNDNQILSEIVEAKMAEELKPMDTDKESIAESKSPEMSMQEDCISDIAPMQTDEQTNKEQFVPGPNEKPLYTAEPVTLEDLQLLADLFYLPYEHGPKGAQMLREFQWLRANSSVVSVNCKGKDSEKIEEWRSRAAKFEEMCGLVMGMFTRLSNCANRTILYDMYSYVWDIKSIMSMVKSFVQWLGCRSHSSAQFLIGDQEPWAFRGGLAGEFQRLLPIDGANDLFFQPPPLTPTSKVYTIRPYFPKDEASVYKICREMYDDGVGLPFQSQPDLIGDKLVGGLLSLSLDYCFVLEDEDGICGYALGTVDVTPFIKKCKISWIPFMQEKYTKPNGDKELSEAEKIMLSFHEEQEVLPETFLANFPSLIKMDIHKKVTDPSVAKSMMACLLSSLKANGSRGAFCEVRPDDKRILEFYSKLGCFEIAKMEGFPKDVVILGRSL [MGEA5] | -1.09 | -0.671 | -0.112 | -0.0358 | 52.8 | 52.4
MAAPSAGSWSTFQHKELMAADRGRRILGVCGMHPHHQETLKKNRVVLAKQLLLSELLEHLLEKDIITLEMRELIQAKVGSFSQNVELLNLLPKRGPQAFDAFCEALRETKQGHLEDMLLTTLSGLQHVLPPLSCDYDLSLPFPVCESCPLYKKLRLSTDTVEHSLDNKDGPVCLQVKPCTPEFYQTHFQLAYRLQSRPRGLALVLSNVHFTGEKELEFRSGGDVDHSTLVTLFKLLGYDVHVLCDQTAQEMQEKLQNFAQLPAHRVTDSCIVALLSHGVEGAIYGVDGKLLQLQEVFQLFDNANCPSLQNKPKMFFIQACRGDETDRGVDQQDGKNHAGSPGCEESDAGKEKLPKMRLPTRSDMICGYACLKGTAAMRNTKRGSWYIEALAQVFSERACDMHVADMLVKVNALIKDREGYAPGTEFHRCKEMSEYCSTLCRHLYLFPGHPPT [CASP2] | 0.766 | 3.33 | -0.0504 | 0.0545 | 50.2 | 51.5
MASSSTVPLGFHYETKYVVLSYLGLLSQEKLQEQHLSSPQGVQLDIASQSLDQEILLKVKTEIEEELKSLDKEISEAFTSTGFDRHTSPVFSPANPESSMEDCLAHLGEKVSQELKEPLHKALQMLLSQPVTYQAFRECTLETTVHASGWNKILVPLVLLRQMLLELTRRGQEPLSALLQFGVTYLEDYSAEYIIQQGGWGTVFSLESEEEEYPGITAEDSNDIYILPSDNSGQVSPPESPTVTTSWQSESLPVSLSASQSWHTESLPVSLGPESWQQIAMDPEEVKSLDSNGAGEKSENNSSNSDIVHVEKEEVPEGMEEAAVASVVLPARELQEALPEAPAPLLPHITATSLLGTREPDTEVITVEKSSPATSLFVELDEEEVKAATTEPTEVEEVVPALEPTETLLSEKEINAREESLVEELSPASEKKPVPPSEGKSRLSPAGEMKPMPLSEGKSILLFGGAAAVAILAVAIGVALALRKK [BCL2L13] | -2.28 | -2.76 | -0.255 | 0.337 | 53.9 | 54.1
MPVAVGPYGQSQPSCFDRVKMGFVMGCAVGMAAGALFGTFSCLRIGMRGRELMGGIGKTMMQSGGTFGTFMAIGMGIRC [ROMO1] | -0.746 | -1.2 | 0.0021 | -0.104 | 54.5 | 54.9
TLN2 | -0.491 | -0.643 | 0.0273 | -0.145 | 50.5 | 50.4
MTSIIKLTTLSGVQEESALCYLLQVDEFRFLLDCGWDEHFSMDIIDSLRKHVHQIDAVLLSHPDPLHLGALPYAVGKLGLNCAIYATIPVYKMGQMFMYDLYQSRHNTEDFTLFTLDDVDAAFDKIQQLKFSQIVNLKGKGHGLSITPLPAGHMIGGTIWKIVKDGEEEIVYAVDFNHKREIHLNGCSLEMLSRPSLLITDSFNATYVQPRRKQRDEQLLTNVLETLRGDGNVLIAVDTAGRVLELAQLLDQIWRTKDAGLGVYSLALLNNVSYNVVEFSKSQVEWMSDKLMRCFEDKRNNPFQFRHLSLCHGLSDLARVPSPKVVLASQPDLECGFSRDLFIQWCQDPKNSIILTYRTTPGTLARFLIDNPSEKITEIELRKRVKLEGKELEEYLEKEKLKKEAAKKLEQSKEADIDSSDESDIEEDIDQPSAHKTKHDLMMKGEGSRKGSFFKQAKKSYPMFPAPEERIKWDEYGEIIKPEDFLVPELQATEEEKSKLESGLTNGDEPMDQDLSDVPTKCISTTESIEIKARVTYIDYEGRSDGDSIKKIINQMKPRQLIIVHGPPEASQDLAECCRAFGGKDIKVYMPKLHETVDATSETHIYQVRLKDSLVSSLQFCKAKDAELAWIDGVLDMRVSKVDTGVILEEGELKDDGEDSEMQVEAPSDSSVIAQQKAMKSLFGDDEKETGEESEIIPTLEPLPPHEVPGHQSVFMNEPRLSDFKQVLLREGIQAEFVGGVLVCNNQVAVRRTETGRIGLEGCLCQDFYRIRDLLYEQYAIV [CPSF2] | -0.0481 | 1.62 | 0.0805 | -0.409 | 48.7 | 50.3
MFFWCACCLMVAWRVSASDAEHCPELPPVDNSIFVAKEVEGQILGTYVCIKGYHLVGKKTLFCNASKEWDNTTTECRLGHCPDPVLVNGEFSSSGPVNVSDKITFMCNDHYILKGSNRSQCLEDHTWAPPFPICKSRDCDPPGNPVHGYFEGNNFTLGSTISYYCEDRYYLVGVQEQQCVDGEWSSALPVCKLIQEAPKPECEKALLAFQESKNLCEAMENFMQQLKESGMTMEELKYSLELKKAELKAKLL [C4BPB] | 5.14 | 5.56 | -0.0172 | 0.187 | 54.8 | 54.8
MSFDPNLLHNNGHNGYPNGTSAALRETGVIEKLLTSYGFIQCSERQARLFFHCSQYNGNLQDLKVGDDVEFEVSSDRRTGKPIAVKLVKIKQEILPEERMNGQVVCAVPHNLESKSPAAPGQSPTGSVCYERNGEVFYLTYTPEDVEGNVQLETGDKINFVIDNNKHTGAVSARNIMLLKKKQARCQGVVCAMKEAFGFIERGDVVKEIFFHYSEFKGDLETLQPGDDVEFTIKDRNGKEVATDVRLLPQGTVIFEDISIEHFEGTVTKVIPKVPSKNQNDPLPGRIKVDFVIPKELPFGDKDTKSKVTLLEGDHVRFNISTDRRDKLERATNIEVLSNTFQFTNEAREMGVIAAMRDGFGFIKCVDRDVRMFFHFSEILDGNQLHIADEVEFTVVPDMLSAQRNHAIRIKKLPKGTVSFHSHSDHRFLGTVEKEATFSNPKTTSPNKGKEKEAEDGIIAYDDCGVKLTIAFQAKDVEGSTSPQIGDKVEFSISDKQRPGQQVATCVRLLGRNSNSKRLLGYVATLKDNFGFIETANHDKEIFFHYSEFSGDVDSLELGDMVEYSLSKGKGNKVSAEKVNKTHSVNGITEEADPTIYSGKVIRPLRSVDPTQTEYQGMIEIVEEGDMKGEVYPFGIVGMANKGDCLQKGESVKFQLCVLGQNAQTMAYNITPLRRATVECVKDQFGFINYEVGDSKKLFFHVKEVQDGIELQAGDEVEFSVILNQRTGKCSACNVWRVCEGPKAVAAPRPDRLVNRLKNITLDDASAPRLMVLRQPRGPDNSMGFGAERKIRQAGVID [CSDE1] | 1.75 | 4.08 | -0.111 | -0.15 | 47.6 | 48.4
